We go through 9 molecules from patent US20220213213A1.

For experiment [1], the target named is human/mouse 5T4 chimera E1 (human/mouse chimera) (UniProt Q13641). Nature of the experiment: flow cytometry, chimera-transfected cells.
The target in experiment [2] is human/mouse 5T4 chimera E2 (human/mouse chimera) (UniProt Q13641). The experiment is described as follows: flow cytometry, chimera-transfected cells. (In general: Flow cytometry measures light scatter and fluorescence of single cells or particles in a stream.)
For experiment [3], the target named is human/mouse 5T4 chimera E3 (human/mouse chimera) (UniProt Q13641). The experiment is described as follows: flow cytometry, chimera-transfected cells.
The target of experiment [4] is human/mouse 5T4 chimera E4 (human/mouse chimera) (UniProt Q13641). The experiment is described as follows: flow cytometry, chimera-transfected cells.
Experiment [5] has as its target human/mouse 5T4 chimera E5 (human/mouse chimera) (UniProt Q13641). The experiment is described as follows: flow cytometry, chimera-transfected cells.
In experiment [6] the target is human/mouse 5T4 chimera E6 (human/mouse chimera) (UniProt Q13641). Nature of the experiment: flow cytometry, chimera-transfected cells.
Experiment [7] deals with human/mouse 5T4 chimera E7 (human/mouse chimera) (UniProt Q13641). Nature of the experiment: flow cytometry, chimera-transfected cells.
Experiment [8] deals with human/mouse CD137 chimera 1550 (human/mouse chimera) (UniProt Q07011). The experiment is described as follows: flow cytometry, transfected 293-F cells.
Experiment [9] has as its target human/mouse CD137 chimera 1551 (human/mouse chimera) (UniProt Q07011). The experiment is described as follows: flow cytometry, transfected 293-F cells.
Experiment [10] has as its target human/mouse CD137 chimera 1552 (human/mouse chimera) (UniProt Q07011). The experiment is described as follows: flow cytometry, transfected 293-F cells.
Experiment [11] addresses human/mouse CD137 chimera 1553 (human/mouse chimera) (UniProt Q07011). The experiment is described as follows: flow cytometry, transfected 293-F cells.
For experiment [12], the target named is human/mouse CD137 chimera 1554 (human/mouse chimera) (UniProt Q07011). Nature of the experiment: flow cytometry, transfected 293-F cells.
Experiment [13] has as its target human/mouse CD137 chimera 1555 (human/mouse chimera) (UniProt Q07011). The experiment is described as follows: flow cytometry, transfected 293-F cells.
Experiment [14] concerns the target human/mouse CD137 chimera 1550 (human/mouse chimera) (UniProt Q07011). The experiment is described as follows: flow cytometry, transfected 293-F cells, Exp 1.
In experiment [15] the target is human/mouse CD137 chimera 1551 (human/mouse chimera) (UniProt Q07011). Nature of the experiment: flow cytometry, transfected 293-F cells, Exp 1.
In experiment [16] the target is human/mouse CD137 chimera 1552 (human/mouse chimera) (UniProt Q07011). The experiment is described as follows: flow cytometry, transfected 293-F cells, Exp 1.
In experiment [17] the target is human/mouse CD137 chimera 1553 (human/mouse chimera) (UniProt Q07011). The experiment is described as follows: flow cytometry, transfected 293-F cells, Exp 1.
In experiment [18] the target is human/mouse CD137 chimera 1554 (human/mouse chimera) (UniProt Q07011). Nature of the experiment: flow cytometry, transfected 293-F cells, Exp 1.
In experiment [19] the target is human/mouse CD137 chimera 1555 (human/mouse chimera) (UniProt Q07011). The experiment is described as follows: flow cytometry, transfected 293-F cells, Exp 1.
Experiment [20] addresses human/mouse CD137 chimera 1550 (human/mouse chimera) (UniProt Q07011). Nature of the experiment: flow cytometry, transfected 293-F cells, Exp 2.
Experiment [21] deals with human/mouse CD137 chimera 1551 (human/mouse chimera) (UniProt Q07011). The experiment is described as follows: flow cytometry, transfected 293-F cells, Exp 2.
Experiment [22] addresses human/mouse CD137 chimera 1552 (human/mouse chimera) (UniProt Q07011). The experiment is described as follows: flow cytometry, transfected 293-F cells, Exp 2.
Experiment [23] addresses human/mouse CD137 chimera 1553 (human/mouse chimera) (UniProt Q07011). The experiment is described as follows: flow cytometry, transfected 293-F cells, Exp 2.
Experiment [24] addresses human/mouse CD137 chimera 1554 (human/mouse chimera) (UniProt Q07011). Nature of the experiment: flow cytometry, transfected 293-F cells, Exp 2.
Experiment [25] deals with human/mouse CD137 chimera 1555 (human/mouse chimera) (UniProt Q07011). Nature of the experiment: flow cytometry, transfected 293-F cells, Exp 2.

B1: 1212/1213 (antibody, V domains shown)
VH: EVQLLESGGGLVQPGGSLRLSCAASGFTFSSYAMSWVRQAPGKGLEWVSYISSYGGYTSYADSVKGRFTISRDNSKNTLYLQMNSLRAEDTAVYYCARYHSGVLDYWGQGTLVTVSS
VL: DIQMTQSPSSLSASVGDRVTITCRASQSISSYLNWYQQKPGKAPKLLIYAASSLQSGVPSRFSGSGSGTDFTLTISSLQPEDFATYYCQQYYYHYLLTFGQGTKLEIK
Turning to B1, the normalized % positive cells came out at 0.89 in experiment [1]; 0.9 in experiment [2]; 0.93 in experiment [3]; 1 in experiment [4]; 0.84 in [5]; 0.03 in [6]. The molecule also had a normalized % positive cells in experiment [7] of 0.88.

B2: 1626/1627 (antibody, V domains shown)
VH: EVQLLESGGGLVQPGGSLRLSCAASGFTFGGYSMYWVRQAPGKGLEWVSSIGGYYYSTYYADSVKGRFTISRDNSKNTLYLQMNSLRAEDTAVYYCARSYYGSIDYWGQGTLVTVSS
VL: DIQMTQSPSSLSASVGDRVTITCRASQSISSYLNWYQQKPGKAPKLLIYAASSLQSGVPSRFSGSGSGTDFTLTISSLQPEDFATYYCQQGTGYGPLTFGQGTKLEIK
As to B2, the relative MFI normalized to full-length human CD137 came to 0.1 in experiment [8]; 0.11 in experiment [9]; 0.11 in experiment [10]; 0.14 in experiment [11]; 0.12 in experiment [12]; 0.29 in experiment [13].

B3: 1202/1203 (antibody, V domains shown)
VH: EVQLLESGGGLVQPGGSLRLSCAASGFTFYGSSMSWVRQAPGKGLEWVSSIYYGSSGTYYADSVKGRFTISRDNSKNTLYLQMNSLRAEDTAVYYCARSYYGYFDYWGQGTLVTVSS
VL: DIQMTQSPSSLSASVGDRVTITCRASQSISSYLNWYQQKPGKAPKLLIYAASSLQSGVPSRFSGSGSGTDFTLTISSLQPEDFATYYCQQYYTVVPFTFGQGTKLEIK
As for B3, the relative MFI normalized to full-length human CD137 in experiment [8] amounted to 0.05; in experiment [9], 0.05; in experiment [10], 0.06; in experiment [11] it was 0.65; in [12], 0.51; in [13], 0.26.

B4: 1204/1205 (antibody, V domains shown)
VH: EVQLLESGGGLVQPGGSLRLSCAASGFTFSSYYMGWVRQAPGKGLEWVSGIGSYYGYTGYADSVKGRFTISRDNSKNTLYLQMNSLRAEDTAVYYCARAYYDYNYYYAYFDYWGQGTLVTVSS
VL: DIQMTQSPSSLSASVGDRVTITCRASQSISSYLNWYQQKPGKAPKLLIYAASSLQSGVPSRFSGSGSGTDFTLTISSLQPEDFATYYCQQSVPHYPFTFGQGTKLEIK
For the molecule B4, the relative MFI normalized to full-length human CD137 in [8] was 0.07; in experiment [9], 0.11; in experiment [10] it was 0.13; in experiment [11] it was 0.85; in experiment [12], 0.73; in experiment [13], 0.28.

B5: 1206/1207 (antibody, V domains shown)
VH: EVQLLESGGGLVQPGGSLRLSCAASGFTFSGSSMSWVRQAPGKGLEWVSSIYYSGSGTYYADSVKGRFTISRDNSKNTLYLQMNSLRAEDTAVYYCARYGRNVHPYNLDYWGQGTLVTVSS
VL: DIQMTQSPSSLSASVGDRVTITCRASQSISSYLNWYQQKPGKAPKLLIYAASSLQSGVPSRFSGSGSGTDFTLTISSLQPEDFATYYCQQGYYYLPTFGQGTKLEIK
Consider B5, for which the normalized % positive cells in experiment [1] came out at 0.96; in experiment [2] it was 0.74; in experiment [3], 0.25; in experiment [4], 0.52; in experiment [5], 0.9; in experiment [6], 0.94. The molecule also returned a normalized % positive cells in experiment [7] of 0.94.

B6: 1618/1619 (antibody, V domains shown)
VH: EVQLLESGGGLVQPGGSLRLSCAASGFTFSYGSMYWVRQAPGKGLEWVSSISSGSGSTYYADSVKGRFTISRDNSKNTLYLQMNSLRAEDTAVYYCARSSYYGSYYSIDYWGQGTLVTVSS
VL: DIQMTQSPSSLSASVGDRVTITCRASQSISSYLNWYQQKPGKAPKLLIYAASSLQSGVPSRFSGSGSGTDFTLTISSLQPEDFATYYCQQYYDNLPTFGQGTKLEIK
On to B6, for which the relative MFI normalized to full-length human CD137 in experiment [8] was 0.11; in [9] it was 0.67; in experiment [10], 1.2; in experiment [11] it was 1.24; in experiment [12], 1.01; in [13], 0.12.

B7: 1200/1201 (antibody, V domains shown)
VH: EVQLLESGGGLVQPGGSLRLSCAASGFTFSSYAMSWVRQAPGKGLEWVSGISGGGGGTYYADSVKGRFTISRDNSKNTLYLQMNSLRAEDTAVYYCARDVAYFDYWGQGTLVTVSS
VL: DIQMTQSPSSLSASVGDRVTITCRASQSISSYLNWYQQKPGKAPKLLIYAASSLQSGVPSRFSGSGSGTDFTLTISSLQPEDFATYYCQQYYIPHTFGQGTKLEIK
In the case of B7, the relative MFI normalized to full-length human CD137 stood at 0.05 in [8]; 0.04 in [9]; 0.05 in experiment [10]; 0.65 in experiment [11]; 0.84 in experiment [12]; 0.24 in experiment [13].

B8: 1214/1215 (antibody, V domains shown)
VH: EVQLLESGGGLVQPGGSLRLSCAASGFTFSSYAMSWVRQAPGKGLEWVSSIGSGGGYTGYADSVKGRFTISRDNSKNTLYLQMNSLRAEDTAVYYCARVGHPFDYWGQGTLVTVSS
VL: DIQMTQSPSSLSASVGDRVTITCRASQSISSYLNWYQQKPGKAPKLLIYAASSLQSGVPSRFSGSGSGTDFTLTISSLQPEDFATYYCQQDAYPHTFGQGTKLEIK
On to B8, for which the relative MFI normalized to full-length human CD137 in experiment [14] came to 0.06; in experiment [15], 0.07; in experiment [16], 0.32; in experiment [17], 0.41; in experiment [18], 0.26; in experiment [19], 0.3. Moreover, the relative MFI normalized to full-length human CD137 was determined as 0.14 in experiment [20]; 0.15 in experiment [21]; 0.13 in experiment [22]; 0.15 in experiment [23]; 0.15 in experiment [24]; 0.45 in experiment [25].

B9: 1620/1621 (antibody, V domains shown)
VH: EVQLLESGGGLVQPGGSLRLSCAASGFTFSGYYMYWVRQAPGKGLEWVSGISSSGSYTYYADSVKGRFTISRDNSKNTLYLQMNSLRAEDTAVYYCARSVGPYFDYWGQGTLVTVSS
VL: DIQMTQSPSSLSASVGDRVTITCRASQSISSYLNWYQQKPGKAPKLLIYAASSLQSGVPSRFSGSGSGTDFTLTISSLQPEDFATYYCQQGVGPYTFGQGTKLEIK
With B9, the relative MFI normalized to full-length human CD137 in experiment [8] came to 0.17; in [9], 0.33; in experiment [10], 0.18; in experiment [11], 0.17; in [12], 0.17; in experiment [13], 0.32.
